Data on one protein can be found in paper PMC4000578 (Molecular microbiology, 2014).

This series deals with the molecule itself. The series is described as follows: cross-linking.

One may read the stoichiometry N as the number of molecules, sites or subunits per partner or assembly.

B1: BrlR-His6V5 (Biofilm resistance locus Regulator with a C-terminal His6V5-tag) (natural protein, Pseudomonas aeruginosa PAO1, UniProt Q9HUT5 1-270, looked up)
chain: MLTIGQLARIFEISTKTLRHYDAIGLFVPARTGSDNGYRYYQPEQIEQLSRILALRRLDVPLEAIDRLKRDGALDDPQRLRHFLQRHQHTLREEISARQRLLAELDRTLATLAHWRIRNMHARIVERPAFSVVGMEYFGSAPGDTIGQLWERFIPREHEIAGKHDPEVSYGICAQQPNGEFHYVAGFEVQEGWPVPEGMVRFQVPAQKYAVFTHKGTAPQIAESFQAIYSHLLAERGLEPKAGVDFEYYDQRFRGPLDPNSQVDLYIPIY
B1: the “stoichiometry N” value turned out to be 2.
